Experimental findings from paper PMC3213697 are described below.

What all share (test): SEC; gel filtration chromatography of the refolded precursor proteins after heparin affinity chromatography; peak D, dimer
(In general: Size exclusion chromatography separates by hydrodynamic size, large species first.)

In assay [1] the target is C313A myostatin precursor protein (UniProt O14793).
For assay [2], the target named is C313Y myostatin precursor protein (UniProt O14793).
Assay [3] concerns the target C374A myostatin precursor protein (UniProt O14793).

As usually defined, the stoichiometry N is a count of units in the complex or per binding partner. “C313A myostatin precursor protein (from UniProt O14793 24-375) (natural protein)” registered a stoichiometry N in assay [1] of 2.

“C313Y myostatin precursor protein (from UniProt O14793 24-375) (natural protein)” showed a stoichiometry N in assay [2] of 2. “C374A myostatin precursor protein (from UniProt O14793 24-375) (natural protein)” had a stoichiometry N in assay [3] of 2.
